Laboratory results: paper PMC10351726 (2023)
Residue numbers refer to the chain shown, from its start. One block for each binder: values may come before it.

Target: HER2-ECD biotinylated at single site (human, UniProt P04626 23-652, biotinylated at single site)
Assay: SPR

- Kd: 0.183 nM
B1: NanoMab-02 (NM-02) (VHH)
VHH: QVQLQESGGGSVQAGETLRLSCTASGFTFDDSDMGWYRQAPGNECELVSSISSDGSTYYADSVKGRFTISQDNAKNTVYLQMNSLKPEDTGVYYCAAEGHRYELGTCAALDYWGRGTQVTVSS

- Kd: 0.434 nM
B2: humanised NM-02 variant E (VHH)
VHH: B1 VHH with S11L, A14P, E16G, T17S, T23S, A74S, V78L, K86R, P87A, Q118L
